From patent US20150246136A1 (Bayer, published 2015)

Tests used:
[1] = target: T1, Carboanhydrase IX (Homo sapiens, UniProt Q16790 38-459); assay: cell-based or functional assay
[2] = target: T1, Carboanhydrase IX; assay: cell-based or functional assay; remark: listed apart in the source

| EC50 (nM) HT29 [1] [nM] | MIAPaCa 2/CA9+ IC50 [2] [nM] | EC50 (nM) SNU-5 [1] [nM] | Binder |
| --- | --- | --- | --- |
| > 30 | 22 |  | Example 301 (antibody, human IgG1, kappa, V domains shown, linker-toxophore on cysteine S) VH: QVELVESGGGLVQPGGSLRLSCAASGFTFSSYGMSWVRQAPGKGLEWVSGISSLGSTTYYADSVKGRFTISRDNSKNTLYLQMNSLRAEDTAVYYCARTGSPGTFMHGDHWGQGTLVTVSS VL: DIQMTQSPSSLSASVGDRVTITCRASQDINNYLSWYQQKPGKAPKLLIYGASNLQSGVPSRFSGSGSGTDFTLTISSLQPEDFAVYYCQQYYGRPTTFGQGTKVEIKR |
| > 30 | 3.9 |  | Example 302 (antibody, human IgG1, kappa, V domains shown, linker-toxophore on cysteine S) VH: QVELVESGGGLVQPGGSLRLSCAASGFTFSSYGMSWVRQAPGKGLEWVSGISSLGSTTYYADSVKGRFTISRDNSKNTLYLQMNSLRAEDTAVYYCARTGSPGTFMHGDHWGQGTLVTVSS VL: DIQMTQSPSSLSASVGDRVTITCRASQDINNYLSWYQQKPGKAPKLLIYGASNLQSGVPSRFSGSGSGTDFTLTISSLQPEDFAVYYCQQYYGRPTTFGQGTKVEIKR |
| 0.9 | 2.6 | 2.2 | Example 305 (antibody, human IgG1, kappa, V domains shown, linker-toxophore on cysteine S) VH: QVELVESGGGLVQPGGSLRLSCAASGFTFSSYGMSWVRQAPGKGLEWVSGISSLGSTTYYADSVKGRFTISRDNSKNTLYLQMNSLRAEDTAVYYCARTGSPGTFMHGDHWGQGTLVTVSS VL: DIQMTQSPSSLSASVGDRVTITCRASQDINNYLSWYQQKPGKAPKLLIYGASNLQSGVPSRFSGSGSGTDFTLTISSLQPEDFAVYYCQQYYGRPTTFGQGTKVEIKR |
| 5 | 0.3 |  | Example 300 (antibody, human IgG1, kappa, V domains shown, linker-toxophore on cysteine S) VH: QVELVESGGGLVQPGGSLRLSCAASGFTFSSYGMSWVRQAPGKGLEWVSGISSLGSTTYYADSVKGRFTISRDNSKNTLYLQMNSLRAEDTAVYYCARTGSPGTFMHGDHWGQGTLVTVSS VL: DIQMTQSPSSLSASVGDRVTITCRASQDINNYLSWYQQKPGKAPKLLIYGASNLQSGVPSRFSGSGSGTDFTLTISSLQPEDFAVYYCQQYYGRPTTFGQGTKVEIKR |
| 0.05 | 0.019 | 0.6 | Example 304 (antibody, human IgG1, kappa, V domains shown, linker-toxophore on cysteine S) VH: QVELVESGGGLVQPGGSLRLSCAASGFTFSSYGMSWVRQAPGKGLEWVSGISSLGSTTYYADSVKGRFTISRDNSKNTLYLQMNSLRAEDTAVYYCARTGSPGTFMHGDHWGQGTLVTVSS VL: DIQMTQSPSSLSASVGDRVTITCRASQDINNYLSWYQQKPGKAPKLLIYGASNLQSGVPSRFSGSGSGTDFTLTISSLQPEDFAVYYCQQYYGRPTTFGQGTKVEIKR |
| 4.1 | 0.8 |  | Example 299 (antibody, human IgG1, kappa, V domains shown, linker-toxophore on cysteine S) VH: QVELVESGGGLVQPGGSLRLSCAASGFTFSSYGMSWVRQAPGKGLEWVSGISSLGSTTYYADSVKGRFTISRDNSKNTLYLQMNSLRAEDTAVYYCARTGSPGTFMHGDHWGQGTLVTVSS VL: DIQMTQSPSSLSASVGDRVTITCRASQDINNYLSWYQQKPGKAPKLLIYGASNLQSGVPSRFSGSGSGTDFTLTISSLQPEDFAVYYCQQYYGRPTTFGQGTKVEIKR |
| 2.2 | 0.009 | 3.3 | Example 303 (antibody, human IgG1, kappa, V domains shown, linker-toxophore on lysine NH) VH: QVELVESGGGLVQPGGSLRLSCAASGFTFSSYGMSWVRQAPGKGLEWVSGISSLGSTTYYADSVKGRFTISRDNSKNTLYLQMNSLRAEDTAVYYCARTGSPGTFMHGDHWGQGTLVTVSS VL: DIQMTQSPSSLSASVGDRVTITCRASQDINNYLSWYQQKPGKAPKLLIYGASNLQSGVPSRFSGSGSGTDFTLTISSLQPEDFAVYYCQQYYGRPTTFGQGTKVEIKR |

Second part, the binder before the results:

| Binder | EC50 (nM) HT29 [1] [nM] | MIAPaCa 2/CA9+ IC50 [2] [nM] | EC50 (nM) SNU-5 [1] [nM] |
| --- | --- | --- | --- |
| Example 286 (antibody, human IgG1, kappa, V domains shown, linker-toxophore on cysteine S) VH: QVELVESGGGLVQPGGSLRLSCAASGFTFSSYGMSWVRQAPGKGLEWVSGISSLGSTTYYADSVKGRFTISRDNSKNTLYLQMNSLRAEDTAVYYCARTGSPGTFMHGDHWGQGTLVTVSS VL: DIQMTQSPSSLSASVGDRVTITCRASQDINNYLSWYQQKPGKAPKLLIYGASNLQSGVPSRFSGSGSGTDFTLTISSLQPEDFAVYYCQQYYGRPTTFGQGTKVEIKR | 0.03 | 0.8 |  |
| Example 296 (antibody, human IgG1, kappa, V domains shown, linker-toxophore on cysteine S) VH: QVELVESGGGLVQPGGSLRLSCAASGFTFSSYGMSWVRQAPGKGLEWVSGISSLGSTTYYADSVKGRFTISRDNSKNTLYLQMNSLRAEDTAVYYCARTGSPGTFMHGDHWGQGTLVTVSS VL: DIQMTQSPSSLSASVGDRVTITCRASQDINNYLSWYQQKPGKAPKLLIYGASNLQSGVPSRFSGSGSGTDFTLTISSLQPEDFAVYYCQQYYGRPTTFGQGTKVEIKR | 0.4 | 0.6 |  |
| Example 290 (antibody, human IgG1, kappa, V domains shown, linker-toxophore on lysine NH) VH: QVELVESGGGLVQPGGSLRLSCAASGFTFSSYGMSWVRQAPGKGLEWVSGISSLGSTTYYADSVKGRFTISRDNSKNTLYLQMNSLRAEDTAVYYCARTGSPGTFMHGDHWGQGTLVTVSS VL: DIQMTQSPSSLSASVGDRVTITCRASQDINNYLSWYQQKPGKAPKLLIYGASNLQSGVPSRFSGSGSGTDFTLTISSLQPEDFAVYYCQQYYGRPTTFGQGTKVEIKR | 115 | 1.9 | 84 |
| Example 288 (antibody, human IgG1, kappa, V domains shown, linker-toxophore on cysteine S) VH: QVELVESGGGLVQPGGSLRLSCAASGFTFSSYGMSWVRQAPGKGLEWVSGISSLGSTTYYADSVKGRFTISRDNSKNTLYLQMNSLRAEDTAVYYCARTGSPGTFMHGDHWGQGTLVTVSS VL: DIQMTQSPSSLSASVGDRVTITCRASQDINNYLSWYQQKPGKAPKLLIYGASNLQSGVPSRFSGSGSGTDFTLTISSLQPEDFAVYYCQQYYGRPTTFGQGTKVEIKR | 39 | 12 |  |
| Example 287 (antibody, human IgG1, kappa, V domains shown, linker-toxophore on cysteine S) VH: QVELVESGGGLVQPGGSLRLSCAASGFTFSSYGMSWVRQAPGKGLEWVSGISSLGSTTYYADSVKGRFTISRDNSKNTLYLQMNSLRAEDTAVYYCARTGSPGTFMHGDHWGQGTLVTVSS VL: DIQMTQSPSSLSASVGDRVTITCRASQDINNYLSWYQQKPGKAPKLLIYGASNLQSGVPSRFSGSGSGTDFTLTISSLQPEDFAVYYCQQYYGRPTTFGQGTKVEIKR | > 30 | 69 |  |
| Example 293 (antibody, human IgG1, kappa, V domains shown, linker-toxophore on cysteine S) VH: QVELVESGGGLVQPGGSLRLSCAASGFTFSSYGMSWVRQAPGKGLEWVSGISSLGSTTYYADSVKGRFTISRDNSKNTLYLQMNSLRAEDTAVYYCARTGSPGTFMHGDHWGQGTLVTVSS VL: DIQMTQSPSSLSASVGDRVTITCRASQDINNYLSWYQQKPGKAPKLLIYGASNLQSGVPSRFSGSGSGTDFTLTISSLQPEDFAVYYCQQYYGRPTTFGQGTKVEIKR | 0.1 | < 0.1 |  |
| Example 292 (antibody, human IgG1, kappa, V domains shown, linker-toxophore on cysteine S) VH: QVELVESGGGLVQPGGSLRLSCAASGFTFSSYGMSWVRQAPGKGLEWVSGISSLGSTTYYADSVKGRFTISRDNSKNTLYLQMNSLRAEDTAVYYCARTGSPGTFMHGDHWGQGTLVTVSS VL: DIQMTQSPSSLSASVGDRVTITCRASQDINNYLSWYQQKPGKAPKLLIYGASNLQSGVPSRFSGSGSGTDFTLTISSLQPEDFAVYYCQQYYGRPTTFGQGTKVEIKR | 223 | 35 |  |
| Example 289 (antibody, human IgG1, kappa, V domains shown, linker-toxophore on cysteine S) VH: QVELVESGGGLVQPGGSLRLSCAASGFTFSSYGMSWVRQAPGKGLEWVSGISSLGSTTYYADSVKGRFTISRDNSKNTLYLQMNSLRAEDTAVYYCARTGSPGTFMHGDHWGQGTLVTVSS VL: DIQMTQSPSSLSASVGDRVTITCRASQDINNYLSWYQQKPGKAPKLLIYGASNLQSGVPSRFSGSGSGTDFTLTISSLQPEDFAVYYCQQYYGRPTTFGQGTKVEIKR | 49 | 78 |  |
| Example 297 (antibody, human IgG1, kappa, V domains shown, linker-toxophore on cysteine S) VH: QVELVESGGGLVQPGGSLRLSCAASGFTFSSYGMSWVRQAPGKGLEWVSGISSLGSTTYYADSVKGRFTISRDNSKNTLYLQMNSLRAEDTAVYYCARTGSPGTFMHGDHWGQGTLVTVSS VL: DIQMTQSPSSLSASVGDRVTITCRASQDINNYLSWYQQKPGKAPKLLIYGASNLQSGVPSRFSGSGSGTDFTLTISSLQPEDFAVYYCQQYYGRPTTFGQGTKVEIKR | < 0.01 | 0.02 |  |
| Example 291 (antibody, human IgG1, kappa, V domains shown, linker-toxophore on cysteine S) VH: QVELVESGGGLVQPGGSLRLSCAASGFTFSSYGMSWVRQAPGKGLEWVSGISSLGSTTYYADSVKGRFTISRDNSKNTLYLQMNSLRAEDTAVYYCARTGSPGTFMHGDHWGQGTLVTVSS VL: DIQMTQSPSSLSASVGDRVTITCRASQDINNYLSWYQQKPGKAPKLLIYGASNLQSGVPSRFSGSGSGTDFTLTISSLQPEDFAVYYCQQYYGRPTTFGQGTKVEIKR | 27 | 22 |  |
| Example 298 (antibody, human IgG1, kappa, V domains shown, linker-toxophore on cysteine S) VH: QVELVESGGGLVQPGGSLRLSCAASGFTFSSYGMSWVRQAPGKGLEWVSGISSLGSTTYYADSVKGRFTISRDNSKNTLYLQMNSLRAEDTAVYYCARTGSPGTFMHGDHWGQGTLVTVSS VL: DIQMTQSPSSLSASVGDRVTITCRASQDINNYLSWYQQKPGKAPKLLIYGASNLQSGVPSRFSGSGSGTDFTLTISSLQPEDFAVYYCQQYYGRPTTFGQGTKVEIKR | 2.5 | 1.1 | 7.8 |
| Example 294 (antibody, human IgG1, kappa, V domains shown, linker-toxophore on cysteine S) VH: QVELVESGGGLVQPGGSLRLSCAASGFTFSSYGMSWVRQAPGKGLEWVSGISSLGSTTYYADSVKGRFTISRDNSKNTLYLQMNSLRAEDTAVYYCARTGSPGTFMHGDHWGQGTLVTVSS VL: DIQMTQSPSSLSASVGDRVTITCRASQDINNYLSWYQQKPGKAPKLLIYGASNLQSGVPSRFSGSGSGTDFTLTISSLQPEDFAVYYCQQYYGRPTTFGQGTKVEIKR | 13.6 | 1 | 21.4 |
| Example 295 (antibody, human IgG1, kappa, V domains shown, linker-toxophore on cysteine S) VH: QVELVESGGGLVQPGGSLRLSCAASGFTFSSYGMSWVRQAPGKGLEWVSGISSLGSTTYYADSVKGRFTISRDNSKNTLYLQMNSLRAEDTAVYYCARTGSPGTFMHGDHWGQGTLVTVSS VL: DIQMTQSPSSLSASVGDRVTITCRASQDINNYLSWYQQKPGKAPKLLIYGASNLQSGVPSRFSGSGSGTDFTLTISSLQPEDFAVYYCQQYYGRPTTFGQGTKVEIKR | > 100 | 25 | 63 |
